In article PMC9628860, “Electron Transfer to Hydroxylase through Component Interactions in Soluble Methane Monooxygenase” (Journal of Microbiology and Biotechnology, 2022):
Counter-ions that a name gives are not always drawn.

How the values were obtained:
MMOR [1] = target: T1, MMOR (Methylosinus sporium, UniProt Q27RN2, Y95A); experiment: UV-visible spectrum of purified protein, cofactor content; details: FAD as purified, calibrated for [2Fe-2S] absorption; FAD/NADH-binding domain
T1 construct: gene mmoC; full-length reductase (39 kDa), recombinant in E. coli BL21(DE3) from pET30a(+); ferredoxin domain = residues 1-98

MMOR [2] = target: T2, MMOR (Methylosinus sporium, UniProt Q27RN2, Y93A); experiment: as above; details: FAD as purified, calibrated for [2Fe-2S] absorption; FAD/NADH-binding domain; stoichiometry, not an affinity; extra FAD said to be non-specific
T2 construct: gene mmoC; full-length reductase (39 kDa), recombinant in E. coli BL21(DE3) from pET30a(+); ferredoxin domain = residues 1-98

[3] = target: T3, sMMO (MMOH + MMOB + MMOR) (Methylosinus sporium, UniProt Q27RN2, Y93A); experiment: NADH consumption at […] nm; assay type: biochemical; details: turnover; propylene and O2 as co-substrates; 1 uM MMOH, 2 equiv. MMOB, 0.5 or 1.0 equiv. MMOR; 25 mM phosphate, 50 mM NaCl, pH 7.0
T3 construct: gene mmoC; recombinant MMOB and MMOR (39 kDa) from E. coli; with Methane monooxygenase component A alpha chain; Methane monooxygenase component A beta chain; Methane monooxygenase component A gamma chain; Methane monooxygenase regulatory protein B

[4] = target: Hydroxylase (MMOH) of soluble methane monooxygenase (sMMO) from Methylosinus sporium 5 (Methylosinus sporium 5); experiment: other fluorescence titration; tryptophan quenching (Ex 282 nm, Em 336 nm); MMOH 0.32 uM in the cuvette, MMORs added from 0 to 110 equivalents; 25 mM MOPS, 50 mM NaCl, 1 mM DTT, pH 6.5; fitted with a 1:2 binding model

T2 sequence (Q27RN2 entry or part of it Y93A): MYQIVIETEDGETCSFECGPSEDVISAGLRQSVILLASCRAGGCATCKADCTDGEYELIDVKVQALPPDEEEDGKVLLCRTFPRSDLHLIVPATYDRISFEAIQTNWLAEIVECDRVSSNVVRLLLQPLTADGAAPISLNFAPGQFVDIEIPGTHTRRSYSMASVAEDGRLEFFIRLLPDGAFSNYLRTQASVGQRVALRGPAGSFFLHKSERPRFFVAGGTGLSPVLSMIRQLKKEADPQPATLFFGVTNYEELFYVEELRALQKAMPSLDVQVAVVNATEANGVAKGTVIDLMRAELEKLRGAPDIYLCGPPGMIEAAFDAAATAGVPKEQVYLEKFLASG
T3 sequence (Q27RN2 entry or part of it Y93A): as above
T3 sequence (Q27RN4 entry or part of it, stated change not applied, further chain): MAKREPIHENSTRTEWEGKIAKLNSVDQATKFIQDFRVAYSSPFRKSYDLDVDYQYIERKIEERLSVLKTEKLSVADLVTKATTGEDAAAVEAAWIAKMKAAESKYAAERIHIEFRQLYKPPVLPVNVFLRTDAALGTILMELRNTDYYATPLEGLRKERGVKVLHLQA
T3 sequence (Q27RN6 entry or part of it, stated change not applied, further chain): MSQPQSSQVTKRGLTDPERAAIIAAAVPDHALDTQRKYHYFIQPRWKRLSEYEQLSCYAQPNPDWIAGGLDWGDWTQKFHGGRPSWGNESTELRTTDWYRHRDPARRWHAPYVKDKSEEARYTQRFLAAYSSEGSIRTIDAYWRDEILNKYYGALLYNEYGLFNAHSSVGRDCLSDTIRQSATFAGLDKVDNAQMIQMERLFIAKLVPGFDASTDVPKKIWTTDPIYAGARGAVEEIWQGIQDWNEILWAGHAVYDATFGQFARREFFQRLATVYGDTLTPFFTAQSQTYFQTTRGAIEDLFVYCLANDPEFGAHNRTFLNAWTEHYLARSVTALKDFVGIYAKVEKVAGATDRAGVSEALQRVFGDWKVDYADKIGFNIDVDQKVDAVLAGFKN
T1 sequence (Q27RN2 entry or part of it Y95A): as the sequence (Q27RN2 entry or part of it Y93A) above, with A93Y, Y95A counted along it

Row | Compound | FADs per purified reductase (MMOR [1]) | FAD/protein (MMOR [2]) | NADH consumption at 340 nm [3] | Kd1 (first site, 1:2 binding model) [4] | Kd2 (second site, 1:2 binding model) [4]
1 | Cc1cc2nc3c(=O)[nH]c(=O)nc-3n(C[C@H](O)[C@H](O)[C@H](O)COP(=O)(O)OP(=O)(O)OC[C@H]3O[C@@H](n4cnc5c(N)ncnc54)[C@H](O)[C@@H]3O)c2cc1C [flavin adenine dinucleotide] | two irons and two FADs per purified reductase | 2.0 FAD/protein |  |  | 
2 | NC(=O)C1=CN([C@@H]2O[C@H](COP(=O)(O)OP(=O)(O)OC[C@H]3O[C@@H](n4cnc5c(N)ncnc54)[C@H](O)[C@@H]3O)[C@@H](O)[C@H]2O)C=CC1 [β-nicotinamide adenine dinucleotide, reduced disodium salt hydrate] |  |  | The activity of MMOR-Y93A was dramatically reduced |  | 
3 | MMOR-Y93A (enzyme) |  |  |  | 0.15 µM | 17 µM
4 | MMOR-Y95A (enzyme) |  |  |  | 0.21 µM | 7.97 µM
